T1: Nop15 81-220 (Saccharomyces cerevisiae, UniProt P53927 81-220)
T1 sequence: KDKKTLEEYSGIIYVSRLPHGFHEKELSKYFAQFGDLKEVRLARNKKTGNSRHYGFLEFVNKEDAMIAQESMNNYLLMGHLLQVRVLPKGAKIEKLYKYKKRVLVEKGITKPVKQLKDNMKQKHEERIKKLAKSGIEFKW

T2: Nop15 81-180 (Saccharomyces cerevisiae, UniProt P53927 81-180)
T2 sequence: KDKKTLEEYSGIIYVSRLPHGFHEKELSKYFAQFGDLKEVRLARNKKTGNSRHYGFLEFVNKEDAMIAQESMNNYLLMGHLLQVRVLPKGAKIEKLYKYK

T3: Nop15 (Saccharomyces cerevisiae, UniProt P53927 1-220)
T3 sequence: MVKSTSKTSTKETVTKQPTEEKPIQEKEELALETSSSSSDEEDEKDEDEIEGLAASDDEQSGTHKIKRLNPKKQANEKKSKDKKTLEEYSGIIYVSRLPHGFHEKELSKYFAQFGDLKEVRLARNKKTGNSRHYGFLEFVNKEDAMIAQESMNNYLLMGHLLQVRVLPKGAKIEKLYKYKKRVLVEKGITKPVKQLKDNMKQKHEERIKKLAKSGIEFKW

T4: Nop15 81-191 (Saccharomyces cerevisiae, UniProt P53927 81-191)
T4 sequence: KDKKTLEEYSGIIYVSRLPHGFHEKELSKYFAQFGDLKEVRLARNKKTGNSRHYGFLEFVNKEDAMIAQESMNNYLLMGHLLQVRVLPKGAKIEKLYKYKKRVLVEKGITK


How the values were obtained:
Assay in all cases: fluorescence polarization; 150 mM NaCl; 50 mM HEPES pH 7.5, 150 mM NaCl (250 mM in one row), room temperature, 40 min, 9 nM RNA
[1] = target: T1, Nop15 81-220
[2] = target: T2, Nop15 81-180
[3] = target: T3, Nop15
[4] = target: T4, Nop15 81-191

Binder	Kd [1]	further results
UGAGUGAUACUCUUUGGAGUUAACUU (structured_RNA) [ITS2 26-51]	0.104 ± 0.0036 µM	–
UGAGUGAUACUCUUUGGAGUUAACUUGAAAUUGCU (structured_RNA) [ITS2 26-60 WT]	0.0354 ± 0.0013 µM	Kd [2]: 1.05 ± 0.111 µM; Kd [3]: 0.293 ± 0.023 µM; Kd [4]: 0.209 ± 0.015 µM
UGAGUGAUCAUCUUUGGAGUUAACUUGAAAUUGCU (structured_RNA) [ITS2 26-60 disrupted upper]	0.0355 ± 0.0032 µM	–
UUUGUGAUACUCUUUGGAGUUAACAGGAAAUUGCU (structured_RNA) [ITS2 26-60 lower2]	0.0393 ± 0.0027 µM	–
UCUGUGAUACUCUUUGGAGUUAACUUGAAAUUGCU (structured_RNA) [ITS2 26-60 disrupted lower]	0.144 ± 0.016 µM	–
UGACAGAUACUCUUUGGAGUUAUGUUGAAAUUGCU (structured_RNA) [ITS2 26-60 lower1]	0.0521 ± 0.0036 µM	–
UGAGUGAUACUCUUUGGAGUAUCACUUGAAAUUGCU (structured_RNA) [ITS2 26-60 paired]	0.089 ± 0.0089 µM	–
UGAGUGAUCAACUUUGGUUGUAACUUGAAAUUGCU (structured_RNA) [ITS2 26-60 upper]	0.0449 ± 0.0043 µM	–
UGAGUCUAACUCUUUGGAGUAUACUUGAAAUUGCU (structured_RNA) [ITS2 26-60 bulge]	0.0736 ± 0.0056 µM	–

From paper PMC5389651
